Reference: the supplement of paper PMC9170038

Tested on: MS2 coat protein
Assay: apparent KD of MS2 coat protein; designed switch direction (-1 OFF switch, 1 ON switch): -1; higher = weaker reporter binding
In short: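 Apparent KD, taken as the median over clusters for each design, was obtained by curve-fitting normalised cluster fluorescence. Designed RNA switches had been transcribed on Illumina chips by stalled E. coli RNA polymerase and titrated with SNAP-549-labelled MS2 coat protein, doubling from 0.7 or 1.5 nM to 3 µM.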

[1] = Eterna round: R95, input ligand: microRNA oligo, concentration not stated
[2] = Eterna round: R95, input ligand: FMN 200 uM
[3] = Eterna round: R95, input ligand: none
[4] = input ligand: microRNA oligo, concentration not stated

Row | Sequence | apparent KD of MS2 coat protein (input ligand: FMN 200 uM) | apparent KD of MS2 coat protein (input ligand: none) | apparent KD of MS2 coat protein [1] | apparent KD of MS2 coat protein [2] | apparent KD of MS2 coat protein [3] | apparent KD of MS2 coat protein [4]
1 | GUACUGACAGGAUAUACAUGAGGAUCACCCAUGUGCCCUUAAUGAUGCAAAGCAUCAAGUAGAAGGGUCUGUAC [Omei Ex3 Model Bachelor's Dilema v22] (Eterna round: R97, puzzle: Exclusion 3) | 42.5 nM | 32.8 nM |  |  |  | 
2 | AUUUUGUCAGGAUAUGACUAGAUGCACGAAAGUGCAUCUACUUAGAAGGGACAUGAGGAUCACCCAUGUAUUCC [Bring Us a Shrubbery-11] (puzzle: Exclusion 4) |  |  | 13.9 nM |  |  | 
3 | GAGUGUUGAGGAUAUACAUGAGGAUCACCCAUGUGCUUCAGCUAGGAGACUAGCAUUGGUAGAAGGCAAUACUC [Mod of lroppy 6 - Jieux - Exclusion 3] (Eterna round: R97, puzzle: Exclusion 3) | 90.7 nM | 14.8 nM |  |  |  | 
4 | AGAUGGCGAGGAUAUACAUGAGGAUCACCCAUGUGAGAUAAAAUAGUGAGGAAGAAAAGUAGAAGGCGCUGUCA [Mat - Exclusion 3 - Mod of Salish D15] (puzzle: Exclusion 3) |  |  | 58.1 nM | 268 nM | 73 nM | 
5 | CCGGAAAUGGAGGAUAUCGUAUCGGAUACGAUACGAGAAGGCUAUACAUGAGGAUCACCCAUGUGUCCUACCGG [Fiskers Ex 6 - 5] (puzzle: Exclusion 6) |  |  | 12.6 nM |  |  | 
6 | AAAGACAUGAGGAUCACCCAUGUACUGGUGGAGCUCGUGAGGCAGGAUAUCGCGUGCGAAGCUCGCGAGAAGGGCCAGGAAUUU [Cexela] (Eterna round: R96, puzzle: Exclusion NG 3) | 416 nM | 109 nM |  |  |  | 98.2 nM
7 | AUGUUUGUAGUGAGGAUAUCGUUGAGGAAGAGGAUCGAGAAGGCACAUGAGGAUCACCCAUGUAAGAUGUGGUA [JR_BMOE4_Sub081] (puzzle: Brourd's mod of Exclusion 4) |  |  | 61.2 nM | 69.9 nM | 55.5 nM | 
8 | AUAUCGUGAGGAUAUCCAAUAUAUGACAUGAGGAUCACCCAUGUUUCCACUCGUACCUCCGGAGAAGGCACAGUUU [Ex5 #71] (Eterna round: R97, puzzle: Exclusion 5) | 22.4 nM | 32.2 nM |  |  |  | 
9 | AAACAGGAAGGAUAUACAUGAGGAUCACCCAUGUAGGAAAACCUACCAAAAGACCCAAGUAGAAGGUCCGAAAA [jl-ex3-4.64 ViennaUCT mod] (Eterna round: R97, puzzle: Exclusion 3) | 25.8 nM | 15.3 nM |  |  |  | 
10 | AGUAACUAUCACGAAAGUGAUAGUUACACAAGUAGUGAAACAUGAGGAUCACCCAUGUCCUCAUUUGCUCGUCUUAU [Sensor 3 - 33] (puzzle: Sensor v3, turn-off variant 2) |  |  | 168 nM | 461 nM | 925 nM | 
11 | AGAUAUAGAGGAUAUUUGCGGGAACACAUGAGGAUCACCCAUGUCGAAUAGACGCCCUAUAAAGAAGGCUAGACUG [Eternabot (L2) Solution 86] (Eterna round: R97, puzzle: Exclusion 5) | 15.7 nM | 32.8 nM |  |  |  | 
12 | UUUUGAAAGUGAGGAUAUGACAUGAGGAUCACCCAUGUAAAGGGAGUUGACUAUAUAGAAAGAUAUCAGAAGGCACAAAUGUUU [JR_ExcNG2_Sub002] (Eterna round: R96, puzzle: Exclusion NG 2) | 839 nM | 321 nM |  |  |  | 237 nM
13 | GAAAAGGUAGGAUAUACGAAAAGAAAGGGUAGAGAAGAAACACAUGAGGAUCACCCAUGUAGAAGGACCAAAAG [salish99_ex2_r3_098] (puzzle: Exclusion 2) |  |  | 26.4 nM | 96.4 nM | 28.4 nM | 
14 | GUCCUGGACUAUCACAAGCACAUGAGGAUCACCCAUGUCAUGGGUGGGUCACUAAGUACGGCUACUGCUCGUCUUAU [Cac Sensor turn off var1 sub8] (Eterna round: R97, puzzle: Sensor, turn-off variant 1) | 436 nM | 495 nM |  |  |  | 
15 | AAAACCAGAGGAUAUGCGCAUAGAUAAGACUUUGUUUCUUAACAUGAGGAUCACCCAUGUAGAAGGCUGUAAAA [Ex2 #71] (Eterna round: R97, puzzle: Exclusion 2) | 20.6 nM | 22 nM |  |  |  | 
16 | GGUUCGAAAGUGAGGAUAUGCUGGUCCUUGGAUCAGCAGAAGGCACAUGAGGAUCACCCAUGUGGUAACGGACC [Mat - Exclusion 4 - Eli Mod - D37] (Eterna round: R97, puzzle: Brourd's mod of Exclusion 4) | 122 nM | 25.2 nM |  |  |  | 
